Assay [1] concerns the target full length MMP-1 (human). In words: enzyme activity of pre-formed complexes against synthetic substrates; 10 nM [35S]TIMP-3 incubated with an equimolar concentration of metalloproteinase for 1 h at 37 °C; complex formation and stability over 24 h checked by activity.
The target of assay [2] is ADAMTS-5 (of the inhibition assays) (UniProt Q9UNA0). Kind of assay: enzyme inhibition kinetics (fluorogenic peptide substrates); apparent Ki; enzyme pre-incubated with TIMP-3 (0.5-100 nM) 1 h at 37 °C, equilibrium rate of substrate hydrolysis; TNC buffer (50 mM Tris-HCl pH 7.5, 150 mM NaCl, 10 mM CaCl2, 0.05% Brij-35, 0.02% NaN3), 37 °C; tight-binding equation.

full length MMP-1 (human), sequence (P03956 100-469): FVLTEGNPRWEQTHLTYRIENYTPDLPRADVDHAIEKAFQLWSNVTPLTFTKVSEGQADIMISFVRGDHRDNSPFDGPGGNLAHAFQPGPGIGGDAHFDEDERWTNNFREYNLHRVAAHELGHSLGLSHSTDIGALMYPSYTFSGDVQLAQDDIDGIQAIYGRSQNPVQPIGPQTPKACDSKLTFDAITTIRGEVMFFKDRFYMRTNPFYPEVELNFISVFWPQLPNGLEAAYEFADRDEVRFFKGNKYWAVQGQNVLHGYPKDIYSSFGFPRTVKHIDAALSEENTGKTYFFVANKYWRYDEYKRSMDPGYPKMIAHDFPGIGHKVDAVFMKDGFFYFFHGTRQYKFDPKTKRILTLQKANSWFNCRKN

B1: FLAG-tagged TIMP-3 (natural protein)
chain: CTCSPSHPQDAFCNSDIVIRAKVVGKKLVKEGPFGTLVYTIKQMKMYRGFTKMPHVQYIHTEASESLCGLKLEVNKYQYLLTGRVYDGKMYTGLCNFVERWDQLTLSQRKGLNYRYHLGCNCKIKSCYYLPCFVTSKNECLWTDMLSNFGYPGYQSKHYACIRQKGGYCSWYRGWAPPDKSIINATDP
For the molecule B1, the stoichiometry N – broadly, the number of molecules, sites or subunits per partner or assembly – in assay [1] came to 1. Moreover, in assay [2], the Ki amounted to 1.91 nM.

(Values after paper PMC7374751.)
